Reference: patent US20230365705A1 (DYNAMICURE BIOTECHNOLOGY, published 2023)
Read-outs that look alike come from different tables or passages of the source.

T1: Human CD93 on cells (human CD93 expressing CHO cells; HUVEC, U937 and KG1a cells) (human, UniProt Q9NPY3 22-652)
T1 construct: whole, on cells; also called hCD93 expressing CHO cells; hCD93 CHO cells
T1 sequence (looked up): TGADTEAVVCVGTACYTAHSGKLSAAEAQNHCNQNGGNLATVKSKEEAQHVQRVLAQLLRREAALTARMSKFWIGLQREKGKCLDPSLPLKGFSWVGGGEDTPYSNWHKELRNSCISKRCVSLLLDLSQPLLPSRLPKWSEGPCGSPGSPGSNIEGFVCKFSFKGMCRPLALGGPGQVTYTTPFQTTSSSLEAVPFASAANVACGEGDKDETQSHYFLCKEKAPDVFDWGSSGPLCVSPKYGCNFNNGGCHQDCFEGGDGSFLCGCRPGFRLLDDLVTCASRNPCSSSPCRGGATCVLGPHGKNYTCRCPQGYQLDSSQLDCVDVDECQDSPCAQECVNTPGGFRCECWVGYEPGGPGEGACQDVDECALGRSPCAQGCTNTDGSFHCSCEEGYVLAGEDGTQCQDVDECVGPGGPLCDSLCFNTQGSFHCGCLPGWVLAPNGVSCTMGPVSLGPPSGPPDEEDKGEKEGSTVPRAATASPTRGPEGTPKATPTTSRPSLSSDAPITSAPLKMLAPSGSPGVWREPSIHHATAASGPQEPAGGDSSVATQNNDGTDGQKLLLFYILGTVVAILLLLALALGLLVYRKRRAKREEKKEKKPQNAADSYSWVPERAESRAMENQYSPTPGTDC

T2: Human CD93 recombinant protein (Sino Biological Inc, Catalog #12589-H08H) (human, UniProt Q9NPY3 22-580)
T2 construct: Biotinylated (EZ-LINK NHS-PEG4 biotin) in the BLI assays; also called hCD93; His-tagged human CD93
T2 sequence (looked up): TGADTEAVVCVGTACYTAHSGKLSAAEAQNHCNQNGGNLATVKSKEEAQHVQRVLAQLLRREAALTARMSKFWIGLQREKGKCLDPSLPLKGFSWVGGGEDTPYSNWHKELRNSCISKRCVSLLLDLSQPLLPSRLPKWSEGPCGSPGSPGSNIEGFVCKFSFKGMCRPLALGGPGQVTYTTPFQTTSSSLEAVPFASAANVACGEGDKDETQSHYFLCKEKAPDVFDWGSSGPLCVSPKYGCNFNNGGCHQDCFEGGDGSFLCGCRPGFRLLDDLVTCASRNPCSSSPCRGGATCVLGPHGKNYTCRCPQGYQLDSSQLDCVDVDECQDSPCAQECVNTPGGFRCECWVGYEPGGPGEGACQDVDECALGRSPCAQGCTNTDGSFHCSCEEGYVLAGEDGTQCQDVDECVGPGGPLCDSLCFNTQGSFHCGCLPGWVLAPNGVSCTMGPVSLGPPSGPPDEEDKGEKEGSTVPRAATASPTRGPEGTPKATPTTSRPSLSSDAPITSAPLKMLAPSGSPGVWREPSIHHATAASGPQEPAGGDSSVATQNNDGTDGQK


Legend:
[1] = biological target: T1, Human CD93 on cells (human CD93 …); assay: flow cytometry, CD93 expressing CHO cells, antibody 10 ug/ml, FITC-A
Description: Human CD93 expressing CHO cells were detached by incubation with TrypLE reagents (Thermos Fisher), which preserves the integrity of CD93 on the cell surface. […] After washing with FACS buffer twice, the samples were acquired in NovoCyte Flow Cytometer and analyzed by NovoExpress software.

[2] = biological target: T2, Human CD93 recombinant protein (Sino …); assay: BLI (Octet QKe), biotinylated human CD93 on streptavidin biosensors
Description: The binding affinity of anti-CD93 antibodies were determined with bio-layer interferometry using Octet QKe (Fortebio). Human CD93 recombinant protein (Sino Biological Inc, Catalog #12589-H08H) or cynomolgus CD93 protein (made in-house) were biotinylated using EZ-LINK NHS-PEG4 biotin (Thermo Fisher Scientific). Streptavidin biosensors (Fortebio) were used to load biotinylated CD93 protein (300 seconds in 5 μg/ml). The baseline was stabilized for 60 seconds in 1× kinetics buffer (Fortebio) before anti-CD93 antibodies at a serial dilution were allowed to associate for 300 seconds with captured protein. Then the sensors were dissociated in 1× kinetics buffer for 600 seconds.

[3] = biological target: T1, Human CD93 on cells (human CD93 …); assay: flow cytometry, CHO cells overexpressing human CD93, antibody 0.01ug, mIgG1 as control, APC-A
[4] = biological target: T1, Human CD93 on cells (human CD93 …); assay: as above; remark: listed apart in the source

Row | Binder | binding result [1] | binding result [2] | M2 gate, % of cells [3] [%] | M2 gate, % of cells [4] [%]
1 | 5H9 (antibody, IgG2a, V domains shown, also called 5H9 mIgG2a) VH: QVQLQQSGPDLVKPGASVKISCKASGYAFSTYWMNWVKQRPGKGLEWIGRIFPGDGDANYNGKFKGKATLTADKSSSTAYMQLSSLTSEDSAVYFCTRTGAAYDFDPFPYWGQGTLVTVSA VL: DIVMTQAAFSNPVTLGTSASISCSSSKSLLHSNGVTYLYWYLQRPGQSPQLLIYRMSNLASGVPDRFSGSGSGTDFTLRISRVEAEDVGIYYCAQMLERPFTFGSGTKLEIK | binds | binds |  | 
2 | 17A7 (antibody, V domains shown, Mouse hybridoma monoclonal antibody) VH: QVQLQQSGPELVKPGASVKISCKGSGYAFSTYWMNWVKQRPGKGLEWIGRIFPGDGDTDYDGKFKGKATLTADKSSNTAYMQLSSLTSEDSAVYFCARTGAAYEFDPFPYWGQGTLVTVSA VL: DIVMTQAAFSNPVTLGTSASISCSSTKSLLHSSGITYLYWYLQRPGQSPQLLIYRMSNLASGVPDRFSGSGSGTDFTLRISRVEAEDVGVYYCAQMLERPFTFGSGTKLEIK | binds | binds |  | 
3 | 17E6 (antibody, V domains shown, Mouse hybridoma monoclonal antibody) VH: EVQLQQSGPELVKPGASVKMSCKASGYTFTSYVIHWVKQKPGQGLEWIGYINPYSDYTQYNEKFKGKATLTSDKSSSTAYMELSSLTSEDSAVYSCARRADGNPYAMDYWGQGTSVTVSS VL: DIVMTQSHKFMSTSVGDRVSTTCKASQDVSTAVVWYQQKPGQSPKLLIYSASYRYTGVPDRFTGSGSGTDFTFTITSVQAEDLAVYYCQQHYSTPFTFGSGTKLEIK | binds | binds |  | 
4 | 20C7 (antibody, V domains shown, Mouse hybridoma monoclonal antibody) VH: EVQLQQSGPELVNPGASVKMSCKASGYTFTAYVMHWVKQKPGQGLEWIGYIFPYNDGTEYNEKFKGKATLTSDKSSSTAYMELSSLTSEDSAVYYCARRTDGNPYTMDYWGQGTSVTVSS VL: DIVMTQSHKFMSTSVGDRVSITCKASQDVSTAVAWYQQKPGQSPKLLIHSASYRYTGVPDRFTGRGSGTDFTFTISSVQAEDLAVYYCQQHYSTPFTFGSGTKLEIK | binds | binds |  | 
5 | 19B5 (antibody, V domains shown, Mouse hybridoma monoclonal antibody) VH: DVNLVESGGGLVKLGGSLKLSCAASGFTFSNYYMSWVRQSPEKRLEWVATISNNGDSTYYLDTVKGRFTISRDSAENTLYLQMSSLISEDTAVYYCTRVGTGFTYWGQGTLVTVSA VL: DIVLTQSPATLSVTPGDSVSLSCRASQSINNYLHWYQQRSHESPRLLIKFASQSISDIPSRFSGSGSGTDFTLSINSIETEDFGMYFCQQSNSWPLTFGAGTKLELK | binds | binds |  | 
6 | humanized 17B10 H1L1 (antibody, mouse IgG1, V domains shown, Chimeric Fc: human CH1, mouse IgG1 CH2 and CH3) VH: QVQLVQSGAEVKKPGSSVKVSCKASGYAFSSYWLNWVRQAPGQGLEWFGRIYPGDGDTDYNGKFKGRVTLTADKSTSTAYMELSSLRSEDTAVYFCVRGDGYWAMDYWGQGTTVTVSS VL: DIVMTQSPLSLPVTPGEPASISCRFSQSLLHSNGITYLYWYLQKPGQSPQLLIYQMSNLASGVPDRFSGSGSGTDFTLKISRVEAEDVGVYYCAQNLELPWTFGGGTKLEIK |  |  | 99 | 
7 | humanized 17B10 H3L1 (antibody, mouse IgG1, V domains shown, Chimeric Fc: human CH1, mouse IgG1 CH2 and CH3) VH: QVQLVQSGPEVKKPGESLKISCKASGYAFSSYWLNWVRQMPGKGLEWMGRIYPGDGDTDYNGKFKGQVTISADKSSGTAYLQLSSLKASDTAVYFCVRGDGYWAMDYWGQGTLVTVSS VL: DIVMTQSPLSLPVTPGEPASISCRFSQSLLHSNGITYLYWYLQKPGQSPQLLIYQMSNLASGVPDRFSGSGSGTDFTLKISRVEAEDVGVYYCAQNLELPWTFGGGTKLEIK |  |  | 99.5 | 
8 | humanized 17B10 H2L1 (antibody, mouse IgG1, V domains shown, Chimeric Fc: human CH1, mouse IgG1 CH2 and CH3) VH: QVQLVQSGAEVVKSGASVKVSCKASGYAFSSYWLNWVRQAPGQGLEWFGRIYPGDGDTDYNGKFKGRVTLIRDTSTSTVYMELTSLTSEDTAVYYCVRGDGYWAMDYWGQGTLVTVSS VL: DIVMTQSPLSLPVTPGEPASISCRFSQSLLHSNGITYLYWYLQKPGQSPQLLIYQMSNLASGVPDRFSGSGSGTDFTLKISRVEAEDVGVYYCAQNLELPWTFGGGTKLEIK |  |  |  | 98.2
9 | humanized 17B10 H1L2 (antibody, mouse IgG1, V domains shown, Chimeric Fc: human CH1, mouse IgG1 CH2 and CH3) VH: QVQLVQSGAEVKKPGSSVKVSCKASGYAFSSYWLNWVRQAPGQGLEWFGRIYPGDGDTDYNGKFKGRVTLTADKSTSTAYMELSSLRSEDTAVYFCVRGDGYWAMDYWGQGTTVTVSS VL: DIVMTQTPLSLPVTPGEPASISCRFSQSLLHSNGITYLYWYLQKPGQSPQLLIYTMSNLASGVPDRFSGSGSGTDFTLKISRVEAEDVGVYYCAQNLELPWTFGGGTKLEIK |  |  | 92.1 | 
10 | humanized 17B10 H2L3 (antibody, mouse IgG1, V domains shown, Chimeric Fc: human CH1, mouse IgG1 CH2 and CH3) VH: QVQLVQSGAEVVKSGASVKVSCKASGYAFSSYWLNWVRQAPGQGLEWFGRIYPGDGDTDYNGKFKGRVTLIRDTSTSTVYMELTSLTSEDTAVYYCVRGDGYWAMDYWGQGTLVTVSS VL: DIVMTQSPDSLAVSLGERATINCRFSKSLLHSNGITYLYWYQQKPGQPPKLLIYQMSNLASGVPDRFSGSGSGTDFTLTISSLQAEDVAVYYCAQNLELPWTFGGGTKLEIK |  |  | 99.2 | 
11 | 19E12 (antibody, V domains shown, Mouse hybridoma monoclonal antibody) VH: QVQLQQSGAELVRPGASVKLSCKASGYTFTDYEMHWVRQTPVHGLEWIGGIDPETGGTAYNQKFKGKATLTADKSSSTAYMELRSLTSEDSAVYYCTRGAWFAYWGQGTLVTVSA VL: QAVVTQESALTTSPGETVTLTCRSSTGAVTTSNSANWVQEKPDHLFTGLIGGTNNRAPGVPARFSGSLIGDKAALTITGAQTEDEAIYFCALWYNNHFVFGGGTKLTVL | binds | binds |  | 
12 | 16G9 (antibody, V domains shown, Mouse hybridoma monoclonal antibody) VH: EVQLQQSGPELVKPGASVKMSCKASGYTFTDYYMNWVKQSHGKSLEWIGRVNPNNGGKTYNQKFKGKATLTVDKSLSTAYMQLNSLTSEDSAVYYCARWRLRPVDYGMDYWGQGTSVTVSS VL: DIVLTQSPASLAVSLGQRATISCRASQSVSTSSYSYMHWYQQKPGQPPKLLIKYASNLESGVPARFSGSGSGTDFTLNIHPVEEEDTATYYCQHSWEIPFTFGSGTKLEIK | binds | binds |  | 
13 | 12H4 (antibody, V domains shown, Mouse hybridoma monoclonal antibody) VH: EVQLQQSGPELVKPGASVKVSCKASGYTFTDYYIHWVKQRPGQGLEWIGEIYPGSDDAYYNEKFKGKATLTADKSSSTAYMQLSSLTSEDSAVYFCTRETTATAYWGQGTLVTVSA VL: QIVLTQSPAIMSASPGEKVTITCSASSSVSLIYWFQQKPGTSPKLWIYSTSNLASGVPARFSGSGSGTSYSLTISRMEAEDAATYYCQQRSGYPPTFGGGTKLEIK | binds | binds |  | 
14 | 16B6 (antibody, V domains shown, Mouse hybridoma monoclonal antibody) VH: QVQLQQSGPELVKPGASVKISCKASGYAFSRSWMNWVKQRPGKGLEWIGWIYPGDGDTNYNGKFKGKATLTADKSSSTAYMQLSSLTSEDSAAYFCARSATLPYWYFDVWGAGTTVTVSS VL: DIKMTQSPSSMYASLGERVTITCKASQDIKSYLSWYQQKPWKSPKTLIYYATNLADGVPSRFSGSGSGQDYSLTISSLGSDDTATYYCLQHVESPWTFGGGTKLEIK | binds | binds |  | 
